Assay results published in patent publication US20180117114A1, “PEPTIDES THAT MODULATE THE EFFECT OF THE CRMP: NEUROFIBROMIN COMPLEX ON SYNAPTIC TRANSMISSION” (Indiana University Research and Technology Coporation, priority 2015, published 2018).

What was measured:
CaV2.2 [1] = biological target: T1, CaV2.2 (Homo sapiens, UniProt Q00975); assay: CaV2.2 surface staining in transfected HEK293 cells expressing CaV2.2; type: cell-based; conditions: HEK293 cells expressing CaV2.2, transiently transfected with EGFP-fused plasmids
T1 construct: expressed in transfected cells; host or cells: HEK293 cells expressing CaV2.2
Experimental: (§1) Recently, it was shown that CRMP-2 facilitates CaV2.2 membrane trafficking in hippocampal and sensory neurons (12, 13), the hypothesis that the CBD3 peptide would act in a dominant negative manner to inhibit this CRMP-2 mediated trafficking was tested. Plasmids containing full-length CRMP-2 or the CBD3 peptide fused to enhanced green fluorescent protein (EGFP) were transiently transfected into human embryonic kidney 293 (HEK293) cells expressing CaV2.2. […] Since CBD3 peptide expression was sufficient in preventing forward trafficking of CaV2.2, it is possible that this would result in loss of currents via these channels. To test this, neurons were transfected with full-length CRMP-2 or CBD3 peptide and measured CaV2.2 currents 2 days post-transfection using whole-cell voltage clamp electrophysiology. Expression of CBD3 reduced peak Ca^2+ current density by ˜64% compared to CRMP-2 neurons (FIGS. 2C and 2D).

CaV2.2 [2] = assay: CaV2.2 currents in transfected neurons by whole-cell voltage clamp electrophysiology; type: cell-based; conditions: compared to CRMP-2 neurons; 2 days post-transfection
Experimental: as §1

CRMP-2 = biological target: T2, CRMP-2 (Mus musculus, UniProt O08553); assay: SPOTS blot of neurofibromin C-terminus peptides overlaid with mouse brain lysate, probed with CRMP-2 antibodies; type: binding; conditions: 15-mers, three CRMP-2 antibodies, FIG. 4
T2 construct: overlaid with wild-type mouse brain lysate in NF1 solubilization buffer; from tissue; host or cells: wild-type mouse brain lysate
Experimental: FIG. 4 presents plot of mean binding of CRMP-2 to neurofibromin versus peptide blot position. Neurofibromin peptides (15-mers) were spotted onto a SPOTS blot membrane from amino acids 2260-2818 of […], a region where neurofibromin has been reported to bind CRMP-2. The blots were blocked, then overlaid with wild-type mouse brain lysate in NF1 solubilization buffer, washed briefly, then incubated with poly CRMP-2 (Sigma) or mono CRMP-2+poly CRMP-2 phospho Ser522 and Ser555 antibodies. The blots were scanned (Licor) and the spot intensity normalized to the maximum intensity in each series. The normalized data was then averaged and the mean+/−SEM is shown in the graph above (n=3).
Referring now to FIG. 4, peptides encompassing the C-terminus of neurofibromin were spotted with CRMP-2 and the resulting blot was probed with three different CRMP-2 antibodies. […] These peptides are: SEQ ID NO: 1, RVSHGQIKQIIRILS; SEQ ID NO: 2, KGYRHPSPAIVARTV, and SEQ ID NO: 3, YLQSFGFNGLWRFAG. In order to facilitate their entry into cells, each peptide may be fused to a portion of the cell-membrane transduction domain of the human immunodeficiency virus-type 1 (HIV-1) transactivator of transcription (TAT) protein (SEQ ID NO: 4 and/or SEQ ID NO: 6).

T1 sequence (Q00975 whole entry, the tested form may be a part): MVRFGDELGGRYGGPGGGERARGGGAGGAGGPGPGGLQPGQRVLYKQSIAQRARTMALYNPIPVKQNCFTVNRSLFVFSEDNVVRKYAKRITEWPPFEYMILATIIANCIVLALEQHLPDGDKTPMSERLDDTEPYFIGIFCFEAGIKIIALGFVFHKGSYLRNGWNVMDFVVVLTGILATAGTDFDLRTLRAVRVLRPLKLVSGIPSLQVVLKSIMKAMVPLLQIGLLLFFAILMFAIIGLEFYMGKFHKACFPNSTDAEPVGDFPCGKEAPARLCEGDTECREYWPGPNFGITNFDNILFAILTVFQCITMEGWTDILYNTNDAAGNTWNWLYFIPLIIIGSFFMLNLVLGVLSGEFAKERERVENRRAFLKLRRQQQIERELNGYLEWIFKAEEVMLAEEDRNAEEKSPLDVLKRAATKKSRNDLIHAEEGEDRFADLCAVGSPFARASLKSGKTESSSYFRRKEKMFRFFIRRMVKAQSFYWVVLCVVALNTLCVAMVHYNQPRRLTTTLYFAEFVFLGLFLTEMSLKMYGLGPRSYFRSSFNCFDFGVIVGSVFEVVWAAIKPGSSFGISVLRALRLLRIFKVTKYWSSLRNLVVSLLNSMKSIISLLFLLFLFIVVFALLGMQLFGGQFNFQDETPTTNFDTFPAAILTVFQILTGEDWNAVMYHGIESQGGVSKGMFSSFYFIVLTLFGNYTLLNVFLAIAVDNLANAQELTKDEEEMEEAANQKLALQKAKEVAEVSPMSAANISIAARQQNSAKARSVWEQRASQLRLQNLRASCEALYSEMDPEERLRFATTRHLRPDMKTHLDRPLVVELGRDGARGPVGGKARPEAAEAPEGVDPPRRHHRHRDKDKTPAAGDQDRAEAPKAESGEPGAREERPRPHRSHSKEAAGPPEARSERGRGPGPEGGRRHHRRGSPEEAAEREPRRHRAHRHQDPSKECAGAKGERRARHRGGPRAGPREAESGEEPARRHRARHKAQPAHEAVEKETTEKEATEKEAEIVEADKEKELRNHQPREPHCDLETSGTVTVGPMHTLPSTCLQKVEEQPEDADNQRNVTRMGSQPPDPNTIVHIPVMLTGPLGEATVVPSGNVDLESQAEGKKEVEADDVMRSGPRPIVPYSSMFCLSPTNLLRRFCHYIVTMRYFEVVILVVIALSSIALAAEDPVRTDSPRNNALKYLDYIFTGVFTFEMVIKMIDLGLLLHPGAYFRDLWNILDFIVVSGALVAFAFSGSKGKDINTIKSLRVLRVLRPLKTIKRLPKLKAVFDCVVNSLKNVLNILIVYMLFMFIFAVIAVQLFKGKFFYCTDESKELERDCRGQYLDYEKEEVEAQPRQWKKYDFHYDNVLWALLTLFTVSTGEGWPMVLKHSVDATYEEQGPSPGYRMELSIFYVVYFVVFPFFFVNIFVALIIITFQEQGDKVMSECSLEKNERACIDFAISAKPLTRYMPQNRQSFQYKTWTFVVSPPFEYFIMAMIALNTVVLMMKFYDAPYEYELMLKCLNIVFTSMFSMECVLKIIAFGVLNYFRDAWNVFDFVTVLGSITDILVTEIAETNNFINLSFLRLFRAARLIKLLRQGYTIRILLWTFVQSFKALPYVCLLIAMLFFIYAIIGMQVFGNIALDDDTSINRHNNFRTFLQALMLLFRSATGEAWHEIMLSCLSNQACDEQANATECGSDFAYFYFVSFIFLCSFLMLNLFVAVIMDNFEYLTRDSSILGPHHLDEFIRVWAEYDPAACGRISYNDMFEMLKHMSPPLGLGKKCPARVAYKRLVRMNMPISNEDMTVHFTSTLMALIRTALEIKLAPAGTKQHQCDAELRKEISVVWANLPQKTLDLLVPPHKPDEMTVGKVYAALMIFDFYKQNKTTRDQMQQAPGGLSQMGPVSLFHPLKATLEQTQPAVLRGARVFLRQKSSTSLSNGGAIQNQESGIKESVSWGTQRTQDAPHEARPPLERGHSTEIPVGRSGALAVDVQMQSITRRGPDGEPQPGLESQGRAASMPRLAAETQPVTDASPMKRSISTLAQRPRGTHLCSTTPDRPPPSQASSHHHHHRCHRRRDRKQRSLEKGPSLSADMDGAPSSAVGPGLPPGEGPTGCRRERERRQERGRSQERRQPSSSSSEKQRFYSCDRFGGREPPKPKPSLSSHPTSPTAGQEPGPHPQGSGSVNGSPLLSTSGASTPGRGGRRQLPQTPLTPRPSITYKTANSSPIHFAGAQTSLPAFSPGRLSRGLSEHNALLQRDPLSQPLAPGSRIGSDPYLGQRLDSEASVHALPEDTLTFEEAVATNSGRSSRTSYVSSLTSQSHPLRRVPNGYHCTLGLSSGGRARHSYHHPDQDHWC

Sequence | cells exhibiting CaV2.2 surface staining (CaV2.2 [1]) [%] | reduction of peak Ca^2+ current density (CaV2.2 [2]) [%] | CRMP-2 binding to neurofibromin peptides (normalized spot intensity) (CRMP-2)
DFVYKRIKARSRLAE [CBD3 peptide, a peptide derived from a portion of the CBD3 region; expressed fused to EGFP in b74] | ~10 | ~64 | –
KGYRHPSPAIVARTV [SEQ ID NO: 2, a peptide encompassing a portion of the C-terminus of neurofibromin] | – | – | peaks
RVSHGQIKQIIRILS [SEQ ID NO: 1, a peptide encompassing a portion of the C-terminus of neurofibromin] | – | – | peaks
YLQSFGFNGLWRFAG [SEQ ID NO: 3, a peptide encompassing a portion of the C-terminus of neurofibromin] | – | – | peaks
